According to US20250368742A1:

Experiments:
[1] = molecular target: human MICB005 on cells (human); experiment: flow cytometry on CHO-MICB005 cells; column HSA_2w (2 weeks in human serum at 37 C)
[2] = molecular target: human MICB005 on cells (human); experiment: flow cytometry on CHO-MICB005 cells; column Control_2w (control of the 2-week experiment)
[3] = molecular target: human MICB005 on cells (human); experiment: flow cytometry on CHO-MICB005 cells; column Control_1w (control of the 1-week experiment)
[4] = molecular target: human MICB005 on cells (human); experiment: flow cytometry on CHO-MICB005 cells; column HSA_1w (1 week in human serum at 37 C)
[5] = molecular target: human MICA008 on cells (human); experiment: flow cytometry, HeLa cells (MICA008)
[6] = molecular target: human MICA004 on cells (human); experiment: flow cytometry, CHO cells, panel headed MICA004
Chain of human MICA004 on cells (human) (Q29983 whole entry): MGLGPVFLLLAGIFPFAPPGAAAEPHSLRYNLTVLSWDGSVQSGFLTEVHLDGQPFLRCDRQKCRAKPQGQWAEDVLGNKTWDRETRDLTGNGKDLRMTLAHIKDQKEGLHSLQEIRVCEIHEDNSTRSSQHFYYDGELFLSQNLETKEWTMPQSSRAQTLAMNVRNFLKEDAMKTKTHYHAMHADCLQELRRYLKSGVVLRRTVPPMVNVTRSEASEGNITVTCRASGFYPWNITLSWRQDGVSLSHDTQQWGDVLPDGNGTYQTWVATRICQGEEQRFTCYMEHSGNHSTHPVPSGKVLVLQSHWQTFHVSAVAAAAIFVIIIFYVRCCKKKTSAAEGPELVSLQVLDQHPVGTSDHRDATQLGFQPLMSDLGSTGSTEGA

Chain of human MICA008 on cells (human) (Q29983 whole entry): as above

Binder	EC50 [1]	EC50 [2]	EC50 [3]	EC50 [4]	EC50 (read off the curve) [5]	EC50 (read off the curve) [6]
h36B3GS (antibody, V domains shown) VH: QVQLVQSGAEVKKPGASVKVSCKASGYAFTKYNFYWVRQAPGQGLEWIGYIDPYFGGTVYNQKFKGKATLTVDKSTSTAYMELRSLRSDDTAVYYCATTDSYSLFTYWGQGTLVTVSS VL: DIQMTQSPSSLSASVGDRVTITCRASQDISNYLNWYQQTPGKAVKLLIYYTSRLHSGVPSRFSGSGSGTDYTLTISSLQPEDIATYFCLQGNTLPFTFGQGTKLEIK	0.32 µg/mL	0.314 µg/mL	0.295 µg/mL	0.26 µg/mL		
h36B3GA (antibody, V domains shown) VH: QVQLVQSGAEVKKPGASVKVSCKASGYAFTKYNFYWVRQAPGQGLEWIGYIDPYFGGTVYNQKFKGKATLTVDKSTSTAYMELRSLRSDDTAVYYCATTDAYSLFTYWGQGTLVTVSS VL: DIQMTQSPSSLSASVGDRVTITCRASQDISNYLNWYQQTPGKAVKLLIYYTSRLHSGVPSRFSGSGSGTDYTLTISSLQPEDIATYFCLQGNTLPFTFGQGTKLEIK					0.4 µg/mL	0.5 µg/mL
